Measurements reported in the nanobody polyreactivity screen of Harvey et al. (2022).

Assay: yeast display, Sf9 membrane polyspecificity reagent, FACS + sequencing; frameworks hold sequencing errors
Outline: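 Nanobodies from a synthetic yeast display library (Saccharomyces cerevisiae BJ5465), induced 36–48 hours with galactose, were stained 1 hour at 4 °C with 10% biotinylated, detergent-solubilized Sf9 membrane reagent, enriched on streptavidin microbeads, then FACS-sorted. Anti-HA (expression) and streptavidin (reagent binding) fluorescence set low and high (top ~1%) gates. Polyreactivity labels come from the gate of origin. Genes were colony-PCR amplified, MiSeq 2 × 250 sequenced and filtered by CDR length.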

Sequence	polyreactivity (PSR sort gate)
QVQLVESGGGLVQAGGSLRLSCAASGRIFAYYAKGWYRQAPGKERELVAAISRSGVSTYYADSVKGRFTISRDNAKNTVYLQMNSLKPEDTAVYYCAARWRSGFTSGDYWGQGTQVTVSS	low polyreactivity
QVQLVESGGGLVQAGGSLRLSCAASGFIFYYNTMGWYRQAPGKERELVAAISSGGRTYYADSVKGRFTISRDNAKNTVYLQMNSLKPEVTAVYYCNVVTYVKYGYWGQGTQVTVSS	high polyreactivity
QVQLVESGGGLVQAGGSLRLSCAASGSIFSLYAMGWYRPAPGKERELVAGISRSGGSTYYADSVKGRFTISRDNAKNTVYLQMNSLKPEDTAVYYCAARVKVRDFKGYYWGQGTQVTVSS	high polyreactivity
QVQLVESGGGLVQAGGSLRLSCAASGLIFRYYAMGWYRQAPGKERELVAVINYSGGRTYYADSVKGRFTISRDNAKNTVYLQMNSLKPEDTAVYYCAASFASKYEYWGQGTQVTVSS	high polyreactivity
QVQLQESGGGLVQAGGSLRLSCAASGNIVDADIMGWYRQAPGKERELVASITDGGSTNYADSVKGRFTISSDNAKNTVYLQMNSLKPEDTAVYYCAAIAYPDIPTYFDYDSEYFYWGQGTQVTVSS	low polyreactivity
QVQLVESGGGLVQAGGSLGLSCAASGRTFGFYAMGWYRQATGKQRELVAAITSTGGSTYYADSVKGRFTISRDNAKNTVYLQMNSLKPEDNAVYYCAADSGTKRYYYWGQGTPVTVSS	high polyreactivity
QDQLVESGGGLVQAGGSLRLSSAASGSTFDSNAMAWYRQAPGKERELVAAISSSGGRTSYADSVKGRFTISRDNAKNTVYLQMNSLKPEDTAVYYCADRFKSVDYVQYYYWGQGTQVTVSS	low polyreactivity
QVQLVESGGGLVQAGGSLRLSCAASGIIFDTNAMGWYRQAPGKERELVASISKRGGSTYYADSVKGRFTISRDNAKNTVYLQMNSLKPEDTAVYYCNALRRRQYHDDYWGQGTQVTVSS	high polyreactivity
QVQLVESGGGLVQAGGSLRLSCAASGFTFYYNAMGWYRQAPGKERELVAAISWTGGSTRYADSVKGRFTISRDNAKNTVYLQMNSLKPEDTAVYYCAARGYNYWGQGTQVTVSS	high polyreactivity
QVQLVESGGGLVQARGSLRLSCAASGYIINQYTKGWYRQAPGKERELVADISSGGSTKYADSVKGRFTISRDNGKNTVSLQMNSLKPEDTAVYYCNGEYDSGSPTAYDWEYDYWVQGTQVTVSS	high polyreactivity
QVQLVESGGGLVQAGGSLRLSCAASGSIFYRYAMGWYRQAPGKERELVAAISSTGSTYYADSVKGRFTISRDNAKNTVYLQMNSLKPEDTAVYYCAARQGYRSYRRYDYWGQGTQVTVSS	high polyreactivity
QVQLVESGGGLVQAGGSLRLSCAASGRTFRSNTMGWYRQAPGKEREFVAVITYSAGSTYYADSVKGRFTISRDNAKNTVYLQMNSLKPEDTAVYYCAATSKYRGDYWGQGTQVTVSS	high polyreactivity
QVQLVESGGGLVQAGGSLRLSCAASGFIIDEYAMGWYRQAPGKERELVAAISWSGSRTYYADSVKGRFTISRDNAKNTVYLQMNSLKPEDTAVYYCAKVTGVGAGRRIYWGQGTQVTVSS	low polyreactivity
QVQLVESGGGLVQAGGSLRLSCAASGIIFYAYVMGWYRQAPGKERELVAAITVSGGSTYYADSVKGRFTISRDNAKNTVYLQMNSLKPEDTAVYYCAADWNFYQRTFDSWGQGTQVTVSS	low polyreactivity
QVQLVESGGGLVQAGGSLRLSCAASGSIFPAYAMGWYRQAPGKEREFVAAISGTGGITYYADSVKGRFTISRDNAKNTVYLQMNSLKPEDTEVYYCAAPVYNRYYYWGQGTQVTVSS	low polyreactivity
QVQLVESGGGLVQAGGSLRLSCAASGFTFDPYAMGWYRQAPGKERELVAAIDYSGGTTYYADSVKGRFTISRDNAKNTVYLQMNSLKPEDTAVYYCAAEYTYYHWWGYDYWGQGTQVTVSS	high polyreactivity
QVQLVESGGGLVQAGGMRRLSCAASGRTFGQYVMGWSRQAPGKERELVAAISRRGGSTYYADSVKGRFTISRDNAKNTVYLQMNSLKPEDTAVYYCAPAGTYTGGEGYLGQGTQVTVSS	high polyreactivity
QVQLVESGGGLVQAGGSLRLRCAASGFIFGYYAMGWYRQAPGKERELVAAITTSGGSTYYADSVKARFTISRDNAKNTVYLQMNSLKPEDTAVYYCNKPGNYVWRRSWDFDYWGQGTQVTVSS	high polyreactivity
QVQLAESGRGLVQAGGSLRLSCADSGIIYYFYAMGWYRQAPGKETEFVAAISGTGGRTYYADSVKGRFTISRDNAKNTVYLQMNSLKPEDTAVYYCNADDTPVPSIRFDYWGQGTQVTVSS	low polyreactivity
QVQLVESGGGLVQAGGSLRLSCAASGRTFKYNAMGWYRQAPGKERELVAVIRYSGGTTYYADSVKGRVTISRDNAKNTVYLQMNSLKPEDTAVYYCAADSWSRSVNYYYWGQGTQVTVSS	low polyreactivity
QVQHVESGGGLVQARGSLRLSCAASASIYPSYAMGWYRQAPGKERELVAVINSGGSTYYADSVKGRFTISRDNAKNTVYLQMNILNPEDTAGYYCAAYRRRYPRFDYWGPGTQVTVSS	high polyreactivity
QVQLVESGGGLVQAGGSLRLSCAASGSIFTRYAMGWYRQAPGKERELVAAITKSGSRTYYADSVKGRFTISRDNAKNTVYLQMNSLKPEDTAVYYCAVKFYLPRTRGGYWGQGTQVTVSS	high polyreactivity

Sequence	polyreactivity (PSR sort gate)
QVQLVESGACLVQAGGSLRLSCAASGFIFPRNAMGWYRQAPGKERELVAAITKSGGSTYYADSVKGRFTISRDNAKNTVYLQMNSLKPEDTAVYYCAATDSATELYYRMDYWGQGTQVTVSS	high polyreactivity
QVQLVESGGGLVQAGGSLRLICAASGSTFGPNGMGWYRQAPGKERELVARIDRIGGGTYYADSVKGRFTISRDNAKNTVYLQMNSLKPEDTAVYYCAADGPSPFIQGYAKGDYWGQGTQVTVSS	low polyreactivity
QVQLVESGGGLVQAGGSLRLSCADSGSIFGINTMGWYRQAPGKERELVAAITFGGGSTYYADSVKGRFTISRDNAKNTVYLQMNSLKPEDTAVYYCNRLGVYWVGTEFDYWGQGTQVTVSS	low polyreactivity
QVQLVESGGGLVQAGGSLRLSCAASGSTVSDNAMGWYRQAPGKERELVAAINWGGSNTYYADSVKGRFTISRDNAKNTVYLQMNSLKPEDTAVYYFNADIPRRTNRHYLYDYWGQGTQVTVSS	low polyreactivity
QVQLVESGGGLVQAGGSLRLSCAASGSTIERYAMGWYRPAPGKERELVAAIRWSGGSTYYADSVKGRFTISRDNAKNTVYLQMNSLKPEDTAVYYCAASRSNADWFDSLGQGTQVTVSS	high polyreactivity
QVQLVESGGGLVQAGGSLRLSCAASGRIFYWNAMGWYRQAPGKERELVAAITYSTGSTYYADSVKGRFTISRDNAKNTVYLQMNSLKPEDTAVYYCAAEGPRGSWWALYDYWGQGTQVTVSS	low polyreactivity
QVQLVESGGGLVQAGCSLRLSCAASGRILFGYAMGWYRQAPGKERELVAAITGSGDSTYYADSVKGRFTISRDNAKNAVYLQLYSLKPEDTAVYYCATEEVYGQGNYWGHGTQVTVSS	low polyreactivity
QVQLVESGGGLVQAGGSLRLSCAASGSTLGLNAMGWYRKAPGKERELVAAISQSGTSTYYADSVKGRFTISRDNAKNTVYLQMNSLKPEDTAVYYCAVEYTQWWTYDYWGQGTQVTVSS	low polyreactivity
QGQLVESGGGLVQAGGTLRLSCAASGSTFAVYVMGGYRQAPGTERELVAAISTSGARTYYADSVKGRFTISRDNAKNTVYLQMNSLKPEDTAVYYCAARSNALFRFDYWGQGTQVTVSS	high polyreactivity
QVQLVESGGGLVQAGGSLRLSCAASGSTFAYNTMGWYRQAPGKDRELVAAISQRGGSTYADSVKGRFTISRDNAKNTVYLQMNSLKPEDNAVYYCAADGYTYKFDYWGQGTQVTVSS	low polyreactivity
QVQLVESGGGLVQAGGSLRLSCAASGSIFVRNALGWYRQAPGKEREFVAIRFSGATTYYADSVKGRFTISRDNAKNTVYLQMNSLKPEDTAVYYCAAVARTYGRTSYYWGQGTQVTVSS	high polyreactivity
QVQLVESGGGLVQAGGSLRLSCAASGSIFPANAMGWYRQAPGKERELVAAISGRGGRTYYADSVKGRFTISRDNAKNTVYLQMNSLKPEDTAVYYCNKVGPLVGGVKYYYWGQGTQVTVSS	high polyreactivity
QVQLVESGGGLVQAGGSLRLSCAASGRIFWFNAMGWYRQAPGKERELVAAISGGSTNYADSVKGRFTISRDNAKNTVYLQMNSLKPEDTAVYYCAARYLRRYNWGQGTQVTVSS	high polyreactivity
QVQLVESAGGLVQAGGSLRLSCAASGFTFYGYAMGAYSQAPGKERELVAAITSGGSTNYADAVKGRFTISRDNAKNTVYVQLNSLKPEDTAVYHCAAVWVANTARYSDTFGYWGQGTQVTVSS	high polyreactivity
QVQRVESGGGLVQAGGSLRLSCAASGRIFWYYAMGWYRQAPGTERQLVAAITSGGRTNFADSVKGRFTISSDNAKNSVYLQMNSLKPEDTAVYYCAAGYYNYLYRLRDQDFDYWGQGTQVTVSS	high polyreactivity
QVQLVESGGRLVQAGGSLRLTCAASGFIFKTNGMRWYRKAPGKERELVAAITSRGGSTYYADSVKGRFTISRDNAKNNVYLQMNSLKPEDTAVYYCAARGSRYTDYDYWGQGTHVTVSS	high polyreactivity
QVQLVESGGGLVQAGGSLRLSCAASGRTFTYNAMGWYRQAPGKERELVAAISSSGGRTYYADSVKGRFTISRDNAKNTVYLQMNSLKPEDTAVYYCNKVKYRFSPPGYDYWGQGTQVTVSS	high polyreactivity
QVQLVESGGGLVQAGGSLRLSCAASGFTFSTNAMGWYRQAPGKERELVAAISKSGVSTYYADSVKGRFTISRDNAKNTVYLQMNSLKPEDTAVYYCAADPKIALYKVWRYDYWGQGTQVTVSS	high polyreactivity
QVQLVESGGGLVQAGGSLRLSCAASGSIFSYYAMGGYRQAPGKARELVASISWNGTSTYYADSVKGRFTISRDNAKNTVYLQMNSLKPEDTAVYYCNVRFNYRGTYDYWGQGTQVTVSS	low polyreactivity
QVQLVESGGGLVQAGGSLRLSCAASGSIFNINVMGWYRQAPGKEREMVAAINSGTSTYYADSVKGRFTISRDNAKNTVYLQMNSLKPEDTAVYYCAARNLFTGRRLFYYWGQGTQVTVSS	low polyreactivity
QVQHVESGGGLVQAGGSLRLSCAASGFTFKFYTMGWYRQAPGKERELVAAISRSGGTTYYADSVKGRFTISRDNAKNTVYLQMTSLKPEDTAVYYCAAPRTKYLSKYGYWGQGTQVTVSS	high polyreactivity
